Patent US20260176336A1 (MESTAG THERAPEUTICS, published 2026)

B1: Clone 4.2 (bispecific antibody, human IgG1, kappa, L234A L235A)
heavy 1: not shown
heavy 2: QLQLQESGPGLVKPSETLSLTCTVSGGSISSSTYYWGWIRQPPGKGLEWIGSIFYSGNTYYNPSLKSRVTISVDTSKNHFSLKLSSVTAADTAVYYCAREIIEPRPGYFDYWGQGTLVTVSSASTKGPSVFPLAPSSKSTSGGTAALGCLVKDYFPEPVTVSWNSGALTSGVHTFPAVLQSSGLYSLSSVVTVPSSSLGTQTYICNVNHKPSNTKVDKKVEPKSCDKTHTCPPCPAPEAAGGPSVFLFPPKPKDTLMISRTPEVTCVVVDVSHEDPEVKFNWYVDGVEVHNAKTKPREEQYNSTYRVVSVLTVLHQDWLNGKEYKCKVSNKALPAPIEKTISKAKGQPREPQVCTLPPSRDELTKNQVSLSCAVKGFYPSDIAVEWESNGQPENNYKTTPPVLDSDGSFFLVSKLTVDKSRWQQGNVFSCSVMHEALHNHYTQKSLSLSPG
light: not shown
notes: FAP:LTBR 1:1 heterodimer of LTBR VHH (clone 1.7) paired with FAP Fab (clone 3.5), human IgG1 LALA
B2: Clone 4.5 (bispecific antibody, human IgG1, kappa, L234A L235A)
heavy 1: not shown
heavy 2: QLQLQESGPGLVKPSETLSLTCTVSGGSISSSTYYWGWIRQPPGKGLEWIGSIFYSGNTYYNPSLKSRVTISVDTSKNHFSLKLSSVTAADTAVYYCAREIIEPRPGYFDYWGQGTLVTVSSASTKGPSVFPLAPSSKSTSGGTAALGCLVKDYFPEPVTVSWNSGALTSGVHTFPAVLQSSGLYSLSSVVTVPSSSLGTQTYICNVNHKPSNTKVDKKVEPKSCDKTHTCPPCPAPEAAGGPSVFLFPPKPKDTLMISRTPEVTCVVVDVSHEDPEVKFNWYVDGVEVHNAKTKPREEQYNSTYRVVSVLTVLHQDWLNGKEYKCKVSNKALPAPIEKTISKAKGQPREPQVCTLPPSRDELTKNQVSLSCAVKGFYPSDIAVEWESNGQPENNYKTTPPVLDSDGSFFLVSKLTVDKSRWQQGNVFSCSVMHEALHNHYTQKSLSLSPG
light: not shown
notes: FAP:LTBR 2:1 heterodimer of FAP mAb (clone 3.5) with C terminal fused LTBR VHH (clone 1.6), human IgG1 LALA
B3: Clone 4.3 (bispecific antibody, human IgG1, kappa, L234A L235A)
heavy 1: not shown
heavy 2: QVQLVQSGAEVKKPGASVKVSCKASGYTFTGYYMHWVRQAPGQGLEWMGWIYPNTGGVNYAQNFQGRVTMTRDTSISTAYMELSRLRSDDTAVYYCARDDYNKNLDYWGQGTLVTVSSASTKGPSVFPLAPSSKSTSGGTAALGCLVKDYFPEPVTVSWNSGALTSGVHTFPAVLQSSGLYSLSSVVTVPSSSLGTQTYICNVNHKPSNTKVDKKVEPKSCDKTHTCPPCPAPEAAGGPSVFLFPPKPKDTLMISRTPEVTCVVVDVSHEDPEVKFNWYVDGVEVHNAKTKPREEQYNSTYRVVSVLTVLHQDWLNGKEYKCKVSNKALPAPIEKTISKAKGQPREPQVCTLPPSRDELTKNQVSLSCAVKGFYPSDIAVEWESNGQPENNYKTTPPVLDSDGSFFLVSKLTVDKSRWQQGNVFSCSVMHEALHNHYTQKSLSLSPG
light: not shown
notes: FAP:LTBR 1:1 heterodimer of LTBR VHH (clone 1.6) paired with FAP Fab (clone 3.6), human IgG1 LALA
B4: Clone 4.4 (bispecific antibody, human IgG1, kappa, L234A L235A)
heavy 1: not shown
heavy 2: QVQLVQSGAEVKKPGASVKVSCKASGYTFTGYYMHWVRQAPGQGLEWMGWIYPNTGGVNYAQNFQGRVTMTRDTSISTAYMELSRLRSDDTAVYYCARDDYNKNLDYWGQGTLVTVSSASTKGPSVFPLAPSSKSTSGGTAALGCLVKDYFPEPVTVSWNSGALTSGVHTFPAVLQSSGLYSLSSVVTVPSSSLGTQTYICNVNHKPSNTKVDKKVEPKSCDKTHTCPPCPAPEAAGGPSVFLFPPKPKDTLMISRTPEVTCVVVDVSHEDPEVKFNWYVDGVEVHNAKTKPREEQYNSTYRVVSVLTVLHQDWLNGKEYKCKVSNKALPAPIEKTISKAKGQPREPQVCTLPPSRDELTKNQVSLSCAVKGFYPSDIAVEWESNGQPENNYKTTPPVLDSDGSFFLVSKLTVDKSRWQQGNVFSCSVMHEALHNHYTQKSLSLSPG
light: not shown
notes: FAP:LTBR 2:1 heterodimer of FAP mAb (clone 3.6) with C terminal fused LTBR VHH (clone 1.6), human IgG1 LALA
B5: Clone 4.6 (bispecific antibody, human IgG1, kappa, L234A L235A)
heavy 1: not shown
heavy 2: QVQLVQSGAEVKKPGASVKVSCKASGYTFTGYYMHWVRQAPGQGLEWMGWIYPNTGGVNYAQNFQGRVTMTRDTSISTAYMELSRLRSDDTAVYYCARDDYNKNLDYWGQGTLVTVSSASTKGPSVFPLAPSSKSTSGGTAALGCLVKDYFPEPVTVSWNSGALTSGVHTFPAVLQSSGLYSLSSVVTVPSSSLGTQTYICNVNHKPSNTKVDKKVEPKSCDKTHTCPPCPAPEAAGGPSVFLFPPKPKDTLMISRTPEVTCVVVDVSHEDPEVKFNWYVDGVEVHNAKTKPREEQYNSTYRVVSVLTVLHQDWLNGKEYKCKVSNKALPAPIEKTISKAKGQPREPQVCTLPPSRDELTKNQVSLSCAVKGFYPSDIAVEWESNGQPENNYKTTPPVLDSDGSFFLVSKLTVDKSRWQQGNVFSCSVMHEALHNHYTQKSLSLSPG
light: not shown
notes: FAP:LTBR 2:1 heterodimer of FAP mAb (clone 3.6) with C terminal fused LTBR VHH (clone 1.7), human IgG1 LALA

What was measured:
[1] = target: T1, human LTBR endogenously expressed on cells (HepG2, A549, A375, HCC1187, RPMI-7951, primary human breast CAFs) (human, UniProt P36941 31-435); assay: cell-based or functional assay
[2] = target: T1, human LTBR endogenously expressed on …; assay: cell-based or functional assay; remark: listed apart in the source
[3] = target: T1, human LTBR endogenously expressed on …; assay: cell-based or functional assay; remark: listed apart in the source
[4] = target: T1, human LTBR endogenously expressed on …; assay: cell-based or functional assay; remark: listed apart in the source
[5] = target: T1, human LTBR endogenously expressed on …; assay: cell-based or functional assay; remark: listed apart in the source
[6] = target: T1, human LTBR endogenously expressed on …; assay: flow cytometry, A549 cells
Description: (§1) In short, 1×10⁶ cells were resuspended in the FACS buffer (1% BSA, 0.1% Sodium Azide in PBS), and 50 μl was added to each well (5×10⁴ cells/well) of a 96-U bottom plate. The cells were washed once and resuspended in 50 μl/well of FACS buffer containing a 1:3, 11-point series dilutions of constructs 4.1-4.6 and clones 4.8-4.9 followed by 1 h incubation at 4° C. […] Next, cells were washed and resuspended in FACS buffer and read on Beckman Coulter CytoFLEX. The data were analysed using FloJo V10 and GraphPad Prism v9. Clone 4.7 was tested for binding to A375 (LTBR positive cell line) and the HEK293-FAP overexpressing cell line, as described in examples 2.4 and 3.5. The EC50 values can be found in.

[7] = target: T2, human FAP expressed on cells (transfected HEK293; FAP-CHO-K1 recombinant cell line, BPS cat no. 79947) (human, UniProt Q12884 1-760); assay: flow cytometry, FAP-CHO-K1 cells
T2 construct: also called HuFAP-HEK293; Hek-FAP
Description: as §1

[8] = target: T3, Biotinylated hLTBR-His-Avitag (Acro, cat no LTR-H82E9-25 µg) (human, UniProt P36941 31-227, biotinylated (Avitag)); assay: BLI (Octet), biotinylated LTBR on SA sensor, antibody as analyte
T3 construct: bought protein loaded on SA Streptavidin biosensors
Description: Briefly, Biotinylated hLTBR-His-Avitag (Acro, cat no LTR-H82E9-25 μg) was loaded on SA Streptavidin biosensors (Fortebio) in kinetics buffer (ForteBio) followed by a 2-fold dilution series starting at 50 nM of FAP/LTBR bispecific antibodies. Binding kinetics were studied in a 1× Kinetics buffer where the association was allowed for 100 seconds, followed by dissociation for 300 seconds. Data generated were referenced by subtracting a parallel buffer blank, the baseline was aligned with the y-axis, inter-step correlation by alignment against dissociation was performed, and the data were smoothed by a Savitzky-Golay filter in the data analysis software. The processed data were fitted using a 1:1 Langmuir binding model with R\hat{ }2 as a measurement of fitting accuracy. The KD and R\hat{ }2 values can be found in.

[9] = target: cynomologus recombinant LTBR (Octet, Example 4.8) (cynomolgus (Macaca fascicularis), UniProt P36941 31-227 (human entry), limits assumed); assay: BLI (Octet), cyno LTBR immobilised on ARG sensor, antibody at 25 nM
Description: A 2-fold series dilution starting at 50 nM of cynomologus recombinant LTBR was immobilised on the surface of ARG biosensors (Fortebio), followed by FAP/LTBR bispecific at 25 nM. Binding kinetics were studied in a 1× Kinetics buffer where the association was allowed for 180 seconds, followed by dissociation for 100 seconds. Sensor tips were regenerated using ethylene glycol. Data generated were referenced by subtracting a parallel buffer blank, the baseline was aligned with the y-axis, inter-step correlation by alignment against dissociation was performed, and the data were smoothed by a Savitzky-Golay filter in the data analysis software. The processed data were fitted using a 1:1 Langmuir binding model with R\hat{ }2 as a measurement of fitting accuracy. The KD values can be found in.

[10] = target: T4, human FAP (Acro, cat no FAP-H82Q6) (human, UniProt Q12884 26-760); assay: BLI (Octet), antibody captured by anti-Fc, FAP as analyte; * value outside instrument specifications
T4 construct: 'FAP is naturally a dimeric antigen'
Description: Binding to recombinant FAP proteins was investigated by Bio-Layer Interferometry (BLI) using the Octet instrument. Using standard amine coupling chemistry, an anti-Fc antibody was immobilised on the surface of ARG biosensors (Fortebio). The FAP/LTBR bispecific antibodies were loaded on the previously coated surface with anti-Fc capture antibody, followed by a 2-fold series dilution starting at 50 nM of either cyno FAP (Acro, cat no FAP-C82Q5) or human FAP (Acro, cat no FAP-H82Q6). Binding kinetics were studied in a 1× Kinetics buffer where the association was allowed for 200 seconds, followed by dissociation for 400 seconds. Sensor tips were regenerated using 10 mM Glycine pH 2.0. Data generated were referenced by subtracting a parallel buffer blank, the baseline was aligned with the y-axis, inter-step correlation by alignment against dissociation was performed, and the data were smoothed by a Savitzky-Golay filter in the data analysis software. The processed data were fitted using a 1:1 Langmuir binding model with R\hat{ }2 as a measurement of fitting accuracy. The Results are summarised in. Avidity was observed as FAP is naturally a dimeric antigen, and the limited detection by Octet with these molecules has been reached. Species cross-reactivity has been confirmed for all test samples.

T3 sequence (P36941 31-227 limits assumed): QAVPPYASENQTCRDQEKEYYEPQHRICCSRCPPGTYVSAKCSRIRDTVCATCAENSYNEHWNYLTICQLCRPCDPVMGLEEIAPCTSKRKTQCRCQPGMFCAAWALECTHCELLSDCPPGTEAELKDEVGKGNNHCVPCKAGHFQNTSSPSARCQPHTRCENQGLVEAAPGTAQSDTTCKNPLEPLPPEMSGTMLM
cynomologus recombinant LTBR (Octet, Example 4.8), sequence (P36941 other isoform, or with tags, fused parts or gaps limits assumed): as the sequence (P36941 31-227 limits assumed) above, with A2V, A7G, Q24R, I45S, N163D, K181R, L184S, P186S counted along it
T1 sequence (P36941 31-435): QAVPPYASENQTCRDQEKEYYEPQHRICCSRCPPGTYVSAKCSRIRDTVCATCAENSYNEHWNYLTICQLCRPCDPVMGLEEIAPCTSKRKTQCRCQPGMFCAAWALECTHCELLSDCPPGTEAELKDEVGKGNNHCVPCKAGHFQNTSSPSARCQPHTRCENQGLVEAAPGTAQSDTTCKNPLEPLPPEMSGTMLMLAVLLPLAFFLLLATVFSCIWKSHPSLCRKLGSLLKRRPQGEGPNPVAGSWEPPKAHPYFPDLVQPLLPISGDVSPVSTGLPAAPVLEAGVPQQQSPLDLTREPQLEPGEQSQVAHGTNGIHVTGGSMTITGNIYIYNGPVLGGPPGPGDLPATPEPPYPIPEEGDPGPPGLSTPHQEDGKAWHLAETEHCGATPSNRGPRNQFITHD

Binder	HepG2 Reporter assay, HepG2:FAP-CHO-K1 Co-culture EC50 [1] [nM]	CCL19 upregulation, HCC1187:CAF Co-culture EC50 [2] [nM]	ICAM1 upregulation in CAFs monoculture assay EC50 [3] [nM]	chemokine (CCL5) induction in RPMI-7951 EC50 [4] [nM]	HCC-1187:RPMI7951 (cis-activation) co-culture assay CCL5 read-out EC50 [5] [nM]	HCC-1187:RPMI7951 (trans-activation) co-culture assay, CCL19 Read-out EC50 [5] [nM]	EC50 [6] [nM]	EC50 [7] [nM]	Kd [8] [nM]	Kd [9] [nM]	Kd [10] [nM]
B1	0.03	0.06	0.019	0.063	0.11	0.16	3.2	0.47	3.2	6.75	0.325
B2	0.04	0.023	0.011	0.018	0.012	–	29	0.11	6.5	5.22	0.1
B3	0.06	0.09	0.04	0.1	0.12	0.11	6.9	0.8	3.1	5.78	0.192
B4	0.031	0.054	0.0048	0.028	0.012	–	45	0.2	4.6	8.3	0.231
B5	0.053	0.013	0.01	0.024	0.013	–	–	0.33	4.3	17.1	0.0443
